The results in this text go back to patent US20080020978A1 (Amgen, published 2008).

Bridge positions count the residues as written; N and C are the ends. Square brackets hold non-standard residues; d marks the D form. Oic = O=C(O)[C@@H]1C[C@@H]2CCCC[C@@H]2N1; 1Nal = N[C@@H](Cc1cccc2ccccc12)C(=O)O; hArg = N=C(N)NCCCC[C@H](N)C(=O)O; Tic = O=C(O)[C@@H]1Cc2ccccc2CN1; Cit = NC(=O)NCCC[C@H](N)C(=O)O; Nle = CCCC[C@H](N)C(=O)O

The labels stand for the following.
B1: PEG-peptide of SEQ ID NO 860 (peptide)
peptide: Ac-WVTHRLAGLLSRPGGVVRKNFVPTDVGPFAF-NH2
modifications: also: PEG-conjugated, in most cases at Lys25
B2: SEQ ID NO 956 (peptide)
peptide: Ac-WVTH[Cit]LAGLLS[Cit]SGGVVRKNFVPTDVG[Tic]FAF-NH2
B3: PEG-peptide of SEQ ID NO 859 (peptide)
peptide: Ac-WVTHRLAGLASRPGGVVRKNFVPTDVGPFAF-NH2
modifications: also: PEG-conjugated, in most cases at Lys25
B4: SEQ ID NO 955 (peptide)
peptide: WVTHXLAGLLSXSGGVVXKNXVXTDVGXFAX
modifications: Ac-WVTH[Cit]LAGLLS[Cit]SGGVV[hArg]KN[2-Nal]V[Oic]TDVG[Oic]FA[2-Nal]-NH2
B5: SEQ ID NO 860 (peptide)
peptide: Ac-WVTHRLAGLLSRPGGVVRKNFVPTDVGPFAF-NH2
B6: SEQ ID NO 943 (peptide)
peptide: Ac-WVTH[Cit]LAGELS[Cit]KGGVV[hArg]KNFVPTDVG[Oic]FAF-NH2
B7: PEG-peptide of SEQ ID NO 856 (peptide)
peptide: Ac-WVTHRLAGLLSQSGGVVRKNFVPTDVGPFAF-NH2
modifications: also: PEG-conjugated, in most cases at Lys25
B8: SEQ ID NO 937 (peptide)
peptide: WVTHXLAGLLSXSGGVVXKNFVPTDVGPFAF
modifications: Ac-WVTH[Cit]LAGLLS[Cit]SGGVV[Cit]KNFVPTDVGPFAF-NH2
B9: SEQ ID NO 948 (peptide)
peptide: WVTHXLAGLLSXSGGVVXKNFVXTDVGXFAX
modifications: Ac-WVTH[Cit]LAGLLS[Cit]SGGVV[hArg]KNFV[Oic]TDVG[Oic]FA[2-Nal]-NH2
B10: SEQ ID NO 865 (peptide)
peptide: WVTHXLAGLLSRSGGVVRKNFVPTDVGPFAF
modifications: Ac-WVTH[hArg]LAGLLSRSGGVVRKNFVPTDVGPFAF-NH2
B11: SEQ ID NO 947 (peptide)
peptide: WVTHXLAGLLSXSGGVVXKNFVPTDVGPXAF
modifications: Ac-WVTH[Cit]LAGLLS[Cit]SGGVV[hArg]KNFVPTDVGP[Tic]AF-NH2
B12: PEG-peptide of SEQ ID NO 941 (peptide)
peptide: WVTHXLAGLLSXSGGVVXKNFVPTDVGPFAF
modifications: Ac-WVTH[Cit]LAGLLS[Cit]SGGVV[hArg](30 KPEGald)NFVPTDVGPFAF-NH2
B13: SEQ ID NO 861 (peptide)
peptide: WVTHXLAGLLSRSGGVVRKNFVPTDVGPFAF
modifications: Ac-WVTH[Cit]LAGLLSRSGGVVRKNFVPTDVGPFAF-NH2
B14: SEQ ID NO 962 (peptide)
peptide: WVTHXLAGLLSXSGGVVRKNFVPTDVGPXAF
modifications: Ac-WVTH[Cit]LAGLLS[Cit]SGGVVRKNFVPTDVGP[Tic]AF-NH2
B15: SEQ ID NO 862 (peptide)
peptide: WVTHRLAGLLSXSGGVVRKNFVPTDVGPFAF
modifications: Ac-WVTHRLAGLLS[Cit]SGGVVRKNFVPTDVGPFAF-NH2
B16: SEQ ID NO 960 (peptide)
peptide: WVTHXLAGLLSXSGGVVXKNFVPTDVGPXAF
modifications: Ac-WVTH[Cit]LAGLLS[Cit]SGGVV[hArg]KNFVPTDVGP[1-Nal]AF-NH2
B17: PEG-peptide of SEQ ID NO 861 (peptide)
peptide: WVTHXLAGLLSRSGGVVRKNFVPTDVGPFAF
modifications: Ac-WVTH[Cit]LAGLLSRSGGVVRKNFVPTDVGPFAF-NH2; PEG-conjugated (Table 2C: in most cases at Lys^25)
B18: PEG-peptide of SEQ ID NO 862 (peptide)
peptide: WVTHRLAGLLSXSGGVVRKNFVPTDVGPFAF
modifications: Ac-WVTHRLAGLLS[Cit]SGGVVRKNFVPTDVGPFAF-NH2; PEG-conjugated (Table 2C: in most cases at Lys^25)
B19: SEQ ID NO 954 (peptide)
peptide: WVTHXLAGLLSXSGGVVXKNXVPTDVGXFAX
modifications: Ac-WVTH[Cit]LAGLLS[Cit]SGGVV[hArg]KN[2-Nal]VPTDVG[Oic]FA[2-Nal]-NH2
B20: SEQ ID NO 864 (peptide)
peptide: WVTHRLAGLLSXSGGVVRKNFVPTDVGPFAF
modifications: Ac-WVTHRLAGLLS[hArg]SGGVVRKNFVPTDVGPFAF-NH2
B21: SEQ ID NO 950 (peptide)
peptide: WVTHXLAGLLSXSGGVVXKNFVXTDVGPXAF
modifications: Ac-WVTH[Cit]LAGLLS[Cit]SGGVV[hArg]KNFV[Oic]TDVGP[Bip]AF-NH2
B22: SEQ ID NO 951 (peptide)
peptide: WVTHXLAGLLSXSGGVVXKNFVXTDVGPFAX
modifications: Ac-WVTH[Cit]LAGLLS[Cit]SGGVV[hArg]KNFV[Oic]TDVGPFA[2-Nal]-NH2
B23: SEQ ID NO 938 (peptide)
peptide: WVTHXLAGLLSXSGGVVXKNFVPTDVGPFAF
modifications: Ac-WVTH[Cit]LAGLLS[Cit]SGGVV[3G-Dpr]KNFVPTDVGPFAF-NH2
B24: PEG-peptide of SEQ ID NO 864 (peptide)
peptide: WVTHRLAGLLSXSGGVVRKNFVPTDVGPFAF
modifications: Ac-WVTHRLAGLLS[hArg]SGGVVRKNFVPTDVGPFAF-NH2; PEG-conjugated (Table 2C: in most cases at Lys^25)
B25: SEQ ID NO 949 (peptide)
peptide: WVTHXLAGLLSXSGGVVXKNFVXTDVGPXAX
modifications: Ac-WVTH[Cit]LAGLLS[Cit]SGGVV[hArg]KNFV[Oic]TDVGP[1-Nal]A[2-Nal]-NH2
B26: SEQ ID NO 952 (peptide)
peptide: WVTHXLAGLLSXSGGVVXKNXVXTDVGPXAF
modifications: Ac-WVTH[Cit]LAGLLS[Cit]SGGVV[hArg]KN[pI-Phe]V[Oic]TDVGP[pI-Phe]AF-NH2
B27: SEQ ID NO 942 (peptide)
peptide: Ac-WVTH[hArg]LEGLLK[Cit]SGGVV[hArg]KNFVPTDVG[Oic]FAF-NH2
modifications: lactam (positions not given here); not fully specified; printed as Ac-WVTH[hArg]LEGLLK[Cit]SGGVV[hArg]KNFVPTDVG[Oic]FAF-NH2
B28: SEQ ID NO 857 (peptide)
peptide: Ac-WVTHQLAGLLSQSGGVVRKNFVPTDVGPFAF-NH2
B29: PEG-peptide of SEQ ID NO 857 (peptide)
peptide: Ac-WVTHQLAGLLSQSGGVVRKNFVPTDVGPFAF-NH2
modifications: also: PEG-conjugated, in most cases at Lys25
B30: SEQ ID NO 944 (peptide)
peptide: Ac-WVTH[Cit]LAGELS[hArg]KGGVV[hArg]KNFVPTDVG[Oic][1Nal]AF-NH2
modifications: lactam 9-13
SMILES: CC(=O)N[C@@H](Cc1c[nH]c2ccccc12)C(=O)N[C@H](C(=O)N[C@H](C(=O)N[C@@H](Cc1c[nH]cn1)C(=O)N[C@@H](CCCNC(N)=O)C(=O)N[C@@H](CC(C)C)C(=O)N[C@@H](C)C(=O)NCC(=O)N[C@H]1CCC(=O)NCCCC[C@@H](C(=O)NCC(=O)NCC(=O)N[C@H](C(=O)N[C@H](C(=O)N[C@@H](CCCCNC(=N)N)C(=O)N[C@@H](CCCCN)C(=O)N[C@@H](CC(N)=O)C(=O)N[C@@H](Cc2ccccc2)C(=O)N[C@H](C(=O)N2CCC[C@H]2C(=O)N[C@H](C(=O)N[C@@H](CC(=O)O)C(=O)N[C@H](C(=O)NCC(=O)N2[C@H](C(=O)N[C@@H](Cc3cccc4ccccc34)C(=O)N[C@@H](C)C(=O)N[C@@H](Cc3ccccc3)C(N)=O)C[C@@H]3CCCC[C@@H]32)C(C)C)[C@@H](C)O)C(C)C)C(C)C)C(C)C)NC(=O)[C@H](CCCCNC(=N)N)NC(=O)[C@H](CO)NC(=O)[C@H](CC(C)C)NC1=O)[C@@H](C)O)C(C)C
B31: SEQ ID NO 859 (peptide)
peptide: Ac-WVTHRLAGLASRPGGVVRKNFVPTDVGPFAF-NH2
B32: PEG-peptide of SEQ ID NO 858 (peptide)
peptide: Ac-WVTHRLAGLLPRSGGVVRKNFVPTDVGPFAF-NH2
modifications: also: PEG-conjugated, in most cases at Lys25
B33: SEQ ID NO 957 (peptide)
peptide: Ac-WVTH[Cit]LAGLLS[Cit]SGGVVRKNFVPTDVG[Tic]FAF-NH2
B34: SEQ ID NO 856 (peptide)
peptide: Ac-WVTHRLAGLLSQSGGVVRKNFVPTDVGPFAF-NH2
B35: SEQ ID NO 945 (peptide)
peptide: Ac-KWVTH[Cit]LAGLLS[Cit]SGGVVRKNFVPTDVGPKAF-NH2
SMILES: CC(=O)N[C@@H](CCCCN)C(=O)N[C@@H](Cc1c[nH]c2ccccc12)C(=O)N[C@H](C(=O)N[C@H](C(=O)N[C@@H](Cc1c[nH]cn1)C(=O)N[C@@H](CCCNC(N)=O)C(=O)N[C@@H](CC(C)C)C(=O)N[C@@H](C)C(=O)NCC(=O)N[C@@H](CC(C)C)C(=O)N[C@@H](CC(C)C)C(=O)N[C@@H](CO)C(=O)N[C@@H](CCCNC(N)=O)C(=O)N[C@@H](CO)C(=O)NCC(=O)NCC(=O)N[C@H](C(=O)N[C@H](C(=O)N[C@@H](CCCNC(=N)N)C(=O)N[C@@H](CCCCN)C(=O)N[C@@H](CC(N)=O)C(=O)N[C@@H](Cc1ccccc1)C(=O)N[C@H](C(=O)N1CCC[C@H]1C(=O)N[C@H](C(=O)N[C@@H](CC(=O)O)C(=O)N[C@H](C(=O)NCC(=O)N1CCC[C@H]1C(=O)N[C@@H](CCCCN)C(=O)N[C@@H](C)C(=O)N[C@@H](Cc1ccccc1)C(N)=O)C(C)C)[C@@H](C)O)C(C)C)C(C)C)C(C)C)[C@@H](C)O)C(C)C
B36: SEQ ID NO 858 (peptide)
peptide: Ac-WVTHRLAGLLPRSGGVVRKNFVPTDVGPFAF-NH2
B37: SEQ ID NO 940 (peptide)
peptide: Ac-WVTH[Cit]LAGLLS[Cit]SGGV[Nle]RKNFVPTDVGPFAF-NH2
SMILES: CCCC[C@H](NC(=O)[C@@H](NC(=O)CNC(=O)CNC(=O)[C@H](CO)NC(=O)[C@H](CCCNC(N)=O)NC(=O)[C@H](CO)NC(=O)[C@H](CC(C)C)NC(=O)[C@H](CC(C)C)NC(=O)CNC(=O)[C@H](C)NC(=O)[C@H](CC(C)C)NC(=O)[C@H](CCCNC(N)=O)NC(=O)[C@H](Cc1c[nH]cn1)NC(=O)[C@@H](NC(=O)[C@@H](NC(=O)[C@H](Cc1c[nH]c2ccccc12)NC(C)=O)C(C)C)[C@@H](C)O)C(C)C)C(=O)N[C@@H](CCCNC(=N)N)C(=O)N[C@@H](CCCCN)C(=O)N[C@@H](CC(N)=O)C(=O)N[C@@H](Cc1ccccc1)C(=O)N[C@H](C(=O)N1CCC[C@H]1C(=O)N[C@H](C(=O)N[C@@H](CC(=O)O)C(=O)N[C@H](C(=O)NCC(=O)N1CCC[C@H]1C(=O)N[C@@H](Cc1ccccc1)C(=O)N[C@@H](C)C(=O)N[C@@H](Cc1ccccc1)C(N)=O)C(C)C)[C@@H](C)O)C(C)C

CGRP1 receptor (CRLR/RAMP1 complex) of human neuroblastoma SK-N-MC cells, sequence (Q16602 23-461, chain 1 of 2): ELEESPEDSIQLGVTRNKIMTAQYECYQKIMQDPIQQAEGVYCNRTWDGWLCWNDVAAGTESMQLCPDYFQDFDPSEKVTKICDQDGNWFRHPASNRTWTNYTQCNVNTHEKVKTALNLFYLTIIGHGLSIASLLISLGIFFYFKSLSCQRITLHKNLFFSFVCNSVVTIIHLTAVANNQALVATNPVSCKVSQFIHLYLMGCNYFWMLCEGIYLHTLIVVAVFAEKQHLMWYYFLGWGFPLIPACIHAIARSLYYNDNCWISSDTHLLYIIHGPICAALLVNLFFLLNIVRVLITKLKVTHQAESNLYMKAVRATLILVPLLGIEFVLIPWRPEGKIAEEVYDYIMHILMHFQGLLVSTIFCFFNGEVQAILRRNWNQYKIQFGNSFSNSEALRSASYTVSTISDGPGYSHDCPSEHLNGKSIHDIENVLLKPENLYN
CGRP1 receptor (CRLR/RAMP1 complex) of human neuroblastoma SK-N-MC cells, sequence (O60894 27-148, chain 2 of 2): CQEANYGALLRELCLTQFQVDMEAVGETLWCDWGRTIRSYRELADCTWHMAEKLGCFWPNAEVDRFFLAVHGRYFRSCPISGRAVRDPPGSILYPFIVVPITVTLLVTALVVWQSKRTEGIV

This assay addresses CGRP1 receptor (CRLR/RAMP1 complex) of human neuroblastoma SK-N-MC cells (human, UniProt Q16602 23-461; O60894 27-148). As to the kind of experiment: cell-based or functional assay.
B1: the “PEG-peptide IC50” value turned out to be 16.7 nM.
Regarding B2, the “Peptide IC50” value turned out to be 3.02 nM.
Turning to B3, the “PEG-peptide IC50” value was determined as 60.5 nM.
Turning to B4, the “Peptide IC50” value amounted to 3.57 nM.
As to B5, the “Peptide IC50” value was determined as 1.42 nM.
As for B6, the “Peptide IC50” value came to 1.45 nM.
Consider B7, for which the “PEG-peptide IC50” value amounted to 0.46 nM.
For the molecule B8, the “Peptide IC50” value is 2.87 nM.
As to B9, the “Peptide IC50” value was 2.57 nM.
In the case of B10, the “Peptide IC50” value was determined as 0.44 nM.
The same measure, in the same setting: to B11 belongs 89.9 nM.
Regarding B12, the “PEG-peptide IC50” value is 7.76 nM.
Turning to B13, the “Peptide IC50” value worked out at 0.57 nM.
Turning to B14, the “Peptide IC50” value came out at 10.1 nM.
Same read-out and setting: to B15 belongs 0.58 nM; to B16, 2.24 nM.
For the molecule B17, the “PEG-peptide IC50” value was 2.08 nM.
As to B18, the “PEG-peptide IC50” value stood at 0.96 nM.
On to B19, for which the “Peptide IC50” value worked out at 3.45 nM.
Take B20: the “Peptide IC50” value stood at 0.57 nM.
The same measure, in the same setting: to B21 belongs 3.85 nM.
Take B22: the “Peptide IC50” value stood at 3.22 nM.
Same read-out and setting: for B23 the value was 1.39 nM.
Take B24: the “PEG-peptide IC50” value amounted to 0.33 nM.
In the case of B25, the “Peptide IC50” value came to 2.73 nM.
As for B26, the “Peptide IC50” value came out at 2.34 nM.
Same read-out and setting: to B27 belongs 0.83 nM; to B28, 0.53 nM.
Regarding B29, the “PEG-peptide IC50” value was determined as 6.21 nM.
On to B30, for which the “Peptide IC50” value stood at 0.85 nM.
B31: the “Peptide IC50” value came to 1.41 nM.
Consider B32, for which the “PEG-peptide IC50” value was 5 nM.
With B33, the “Peptide IC50” value worked out at 4.32 nM.
The same measure, in the same setting: to B34 belongs 0.47 nM; to B35, 13 nM.
On the same count and under the same terms, for B36 the value was 1.3 nM; for B37, 1.85 nM.
